# Measured values reported in the DeepSol protein solubility set.
# Assay: soluble on expression in E. coli; label from the status in PepcDB or PDB records
row,Sequence,soluble on expression in E. coli
1,MAHHHHHHMRLHLPGRRDTRTASTGSSPVASLFLQKPIIFRKVAHGSASTILNVKRLELVLLETQSDQGKSEPDIQRLHWLTPHKLHQVHNDRITTATLQKNKVHSGYQFVLHIVQVSLEFLYRQKKAIILQLAERTLHERIFGGAKQLYHHQRAAGGGGK,not soluble
2,MTQANLSETLFKPRFKHPETSTLVRRFNHGAQPPVQSALDGKTIPHWYRMINRLMWIWRGIDPREILDVQARIVMSDAERTDDDLYDTVIGYRGGNWIYEWATQAMVWQQKACAEDDPQLSGRHWLHAATLYNIAAYPHLKGDDLAEQAQALSNRAYEEAAQRLPGTMRQMEFTVPGGAPITGFLHMPKGDGPFPTVLMCGGLDAMQTDYYSLYERYFAPRGIAMLTIDMPSVGFSSKWKLTQDSSLLHQHVLKALPNVPWVDHTRVAAFGFRFGANVAVRLAYLESPRLKAVACLGPVVHTLLSDFKCQQQVPEMYLDVLASRLGMHDASDEALRVELNRYSLKVQGLLGRRCPTPMLSGYWKNDPFSPEEDSRLITSSSADGKLLEIPFNPVYRNFDKGLQEITDWIEKRLC,soluble
3,MAHHHHHHMTVKVASEVSLLPYGEHQGSFRGVVACSNRDDGYFSGENNYVDTSIYTGFRYQCVEYARRFLLLTTGCVFANCGRASEIYAMDHITHVETGAQYTLHRHHNDGTATQKPAPGDIIIYPYHPELTPWGHVGVISFVDDNRVGIAEQNHYFGPFTSPSESYLDGERCVARYAMLTLDEATKTWRIDEPGAMPSAVGWLSYPDAPTREQIHAPFTPLPCAIKVRSTPFDQDDHPFLTHYHLHKIFDIPSGCVRHAYGMRNGTAETLVGATSAAARVLRFTLHLLFHRGRLGPAFRALPTNPLNATLPEGAGASTEACREVDALFKVLAEEDVVNATETTPDRLRQAVATYFDIPVEWVMAMERDFAKGETHMAAVVSFYPNIATDSAALEAFRAARKRSGTWAAPAVGTVPLTTAKASTPVAEEPLTLSYPATVEELPLKNPHDEAWHLATVNFGNARVMTELSQLNKVKQDLTETIALMTPSMRPFISTQYRMDFAGYLKVVEAVYGPRTGFTIVVSDDQPMDGLLRELVSTVQNLCEHVEYPVRIVNEKDLTFVNGKLHATPSAISPEAGSHMTNIAPSGAYDVNFVYALCEWPRILACREATHAALYRAAVDPASDVVFAKPLWSYLCSGAVNVSDDAERAHYSHSPRSPSVRFFDVCRRLYLLASPTQQPKTWDLEVSEYKDSCRRIHVDAETVPMHSPAHLNADSLMINLAGSCYMGHAGGTLSVESENTGIHVGHPAFLMFMFPAD,not soluble
4,MSLIKTEFKGNNIPYEYAAGADVSDSINGNPIKSFPFEVIELPEGTKYLAWSLIDYDAIPVCGFAWIHWSVANVSVSGNSISIKADLSRTKGDYVQGKNSFTSGLLAEDFSEIENHYVGPTPPDQDHQYELTVYALDHSLNLKNGFYLNEFLKEVNQHKIDQTSINLIGRKEGGSHHHHHH,soluble
5,MDFITDMSKNQRLELQNRLAQYETSLMVMSHNGDVPVITGFNVMRVTTMLDALKVELPAVAVLGDDAQDLAYVFGARPLAVGVNIIRVVDVPGQQPSALVDAELGALHEVSMVRVLNDIADEQLVKANM,soluble
6,MSLQMERRGISALPLHYGHPPEYLFKRAVKLSGIMAEIIVDTYGQGELIRRLADPFWFHSLSLVTGFDWNSSGTTVFTLSALKEYLSTRDLGVKVCGGKASAMADMRADLLSSVETGILKEDDKEYVYENARRIAKIDNSLLQDGYDLYMQFVVVSDRGRHAVIQQGMNSEDRMARRYHWLIGNERVDVEGRYGLSADKTSLNVLDLSATESRDNRSAIVASVREGEVWRFRSGAQSTLDNFSLPFLDLSGRVNWKKLRDLYEYGVDDFEKIYMEKGIGKSTLRALSYIAEVIYGPKASFRDPVKFSFAVGGKDGIPKPVNTYDYDRAIEFFSDLIREKDLNVREKETIARSLAHLSQMKTNFYSEGHHHHHH,soluble
7,MGSDKIHHHHHHMTQLPNFSQSLSQLIACPSISSTQPSWDQGNKEVIQLLATWFEQLDFNIEIQAVPNTSNKFNLLAKLGSGEGGLLLAGHSDTVPFDENRWQSNPHTVVNQDDKFFGLGTCDMKGFFAFILQVCKNLRADQLKKPLYILATADEETTMAGARFFAKSQAIKPDVAIIGEPTNLVPVVMHKGHMSHRISVEGKSGHSSKPNLGINAIEIMYKVIGQLIELKEKFQLNYENQAFDVPAPTLNLGAISGGDNANRICGHCHLDIDLRSLPGMSDDELINWLSEALKPLAELYPGRISFEEMHPSSPSFEQKKPSTLIDIAQEISGHSCCAVNYATEAPYIQQLGCQTIVLGPGSIDQAHQPNEFLAHSEIDKTEKLLTKMIQHYCL,not soluble
8,MSLKIGKIVSVNFNQFRVKISSEIRGNSVNLAGTVYYFGNIGSYLKTTNSVGEQLICEVMSIFDSDTKLDSAAYDFDSNRELLLKPIGTITRDDRFNLGVGIFPGIYSEVNVVTFEDMELILQTGKDKELSKAIHQSFFLGESKNLINYPIDISINSFFNIHSAVLGNSGSGKSNTIAHIIQEIHKKKNNSAIGSRILIFDVNGEYKNAFTGHEISPYIKVRLLKPNIEATEDGVEPFYLPHFLMNIDEWSSFLMATDATQRPFWDKVLQESYKFYMIATHEGDDRQKLINYLRFKICNLIHILQAQGDSDTAIITTAQGILYGILTLIEMDDDLQRACQQEGVLQDLHDLNASEGHHHHHH,not soluble
9,MDIEERINLVLKKPTEEVLTVENLRHLFEIGAPLQHYIGFEISGYIHLGTGLMAGAKIADFQKAGIKTRVFLADWHSWINDKLGGDLEVIQEVALKYFKVGMEKSIEVMGGDPKKVEFVLASEILEKGDYWQTVIDISKNVTLSRVMRSITIMGRQMGEAIDFAKLIYPMMQVADIFYQGVTIAHAGMDQRKAHVIAIEVAQKLRYHPIVHEGEKLKPVAVHHHLLLGLQEPPKWPIESEEEFKEIKAQMKMSKSKPYSAVFIHDSPEEIRQKLRKAFCPAREVRYNPVLDWVEYIIFREEPTEFTVHRPAKFGGDVTYTTFEELKRDFAEGKLHPLDLKNAVAEYLINLLEPIRRYFEKHPEPLELMRSVKITR,soluble
10,MVKLFIGNLPREATEQEIRSLFEQYGKVLECDIIKNYGFVHIEDKTAAEDAIRNLHHYKLHGVNINVEASKNKSKASTKLHVGNISPTCTNQELRAKFEEYGPVIECDIVKDYAFVHMERAEDAVEAIRGLDNTEFQGKRMHVQLSTSRLRTAPGMGDQSGCYRCGKEGHWSKECPVDRTGRVADFTEQYNEQYGAVRTPYTMGYGESMYYNDAYGALDYYKRYRVRSYEAVAAAAAASAYNYAEQTMSHLPQVQSTTVTSHLNSTSVDPYDRHLLPNSGAAATSAAMAAAAATTSSYYGRDRSPLRRAAAMLPTVGEGYGYGPESELSQASAATRNSLYDMARYEREQYVDRARYSAF,soluble
11,MLKYEHIAKQLNAFIHQSNFKPGDKLPNVTQLKERYQVSKSTIIKALGLLEQDGLIYQAQGSGIYVRNIADANRINVFKTNGFSKSLGEHRMTSKVLVFKEMATPPKSVQDELQLNADDTVYYLERLRFVDDDVLCIEYSYYHKEIVKYLNDDIAKGSIFDYLESNMKLRIGFSDIFFNVDKLTSSEASLLQLSTGEPCLRYHQTFYTMTGKPFDSSDIVFHYRHAQFYIPSKK,soluble
12,MAFHHGRRCRITPLPETESLQESKKMNINELGARIDRPTIRELIAYATCRNRPISNSTLLRMEKDGRIPCRLKTPLTSPVWDTREVLEALGLQQ,not soluble
13,MGSDKIHHHHHHMTERIDFTKSEQYTLSIRLSADGFSFSIYNPLTDNDFCFVPHPVNTGYSMTANLKDMLTKTEALKYPYKRVNILYDSPRFTPVPLELFEDEQMDTIFYHNFPKAKGNNEIVLCNVLGRSNVVILFAMDKHTHLLLTEHFPTARFFSTASPLTEYFARKSRLGNSRKLYTYIREQQMEVFCFDKGNLLLINSFPCKQTTDRVYYLLYVWQQLNYNQERDELHLTGILKDKEELLKELRNYLRQVFVISPKAEFNRSEISKIEEIPFDMQTLLLCE,not soluble
14,MHHHHHHGRIGIPRERLTNETRVAATPKTVEQLLKLGFTVAVESGAGQLASFDDKAFVQAGAEIVEGNSVWQSEIILKVNAPLDDEIALLNPGTTLVSFIWPAQNPELMQKLAERNVTVMAMDSVPRISRAQSLDALSSMANIAGYRAIVEAAHEFGRFFTGQITAAGKVPPAKVMVIGAGVAGLAAIGAANSLGAIVRAFDTRPEVKEQVQSMGAEFLELDFKEEAGSGDGYAKVMSDAFIKAEMELFAAQAKEVDIIVTTALIPGKPAPKLITREMVDSMKAGSVIVDLAAQNGGNCEYTVPGEIFTTENGVKVIGYTDLPGRLPTQSSQLYGTNLVNLLKLLCKEKDGNITVDFDDVVIRGVTVIRAGEITWPAPPIQVSAQPQAAQKAAPEVKTEEK,soluble
15,MAHHHHHHMASEEPLNEIPGECPTPGDLGHAGWDVLHTAGAVYPYKPSPLQQEAFRSFLYSWSHVYACSHCSYHMRRYLKRNPPVVTDKLALNRYLCEFHNTVNKNIAKPVYNCDPMVVLRRWHPTFPDMEDQPTIEEQIAEQRRLEQAEAQKQKEKELQQKQVQTSSLGDMKASRERLVGRWRSEKSESHEYANNNPSSVGAFATGWSASSRQHENAGDAAAKSAPAPLAESREKRWWIFGKNGSGDKNAGFSSTTGTPSKVNSSGGGSNSGGMNGSLDDDEASVMAILKRLKACMVYCPDKDEKSNSA,not soluble
16,SKMARASASASLIDGKIYVFGGCPEDADSSNWAEVFDPVYQTWGIFNTPKMAHSINQSVVIEEKKVYAVDEEDQSFSFLPSEGRIWKSGKKDSKVGSRHDWCVIGKLLYCRATRGRILWCQPDELDWKEVKGLEQLQLYLSGTRYIFRRTSDKRPSKTNVKYDIRKISSNSAGNIVIFGNAHIGDPECVELWSAEISMERREGGEIWGKIEWSNVVFKLDPLSNSYSVDVLFSASVHL,soluble
17,MNTIPLHTILKLMAHPERMAILIQLLDSERNIAELAKSLSLPATAVSNHLNRLRVEGLVDFTRYHRIIEYRLVSEEAAAILHTVRDLENKRVA,not soluble
18,MGSDKIHHHHHHAEISDKVIRIGVLNDQSGVYADIAGTGSVEAARMAAEEFGGEIDGAKIEFVSADHQNKADIAANVANQWIDTGGVDAIVDIPNSSAMLAVQEIGRTKKRIVIASGGGSTDFTGPKCSPYGFHWTYDTYSLAKGTAESLVKDGGTTWYNIVVDYAFGHSLDTDTSRFITQAGGQVVGRVLHPLGTSDFSSYLLQAQGSGAKVIGVLSAGADTVNAIKQAAEFGITQGGQILAGLLIFDQTVHSLGLETAQGLRLTTGFYWDRTDATRAWSAEFLKRSTKNIPSMAHAGVYSGVRHYLAAIKAAGTDNADAVAAKMRETPVNDMFAENGTVRADGRMVHDMYLMEVKKPADSTSEWDLMRLVHVIPGEEAYRPLAEGGCPLVQ,not soluble
19,MGSDKIHHHHHHMSEPLRIIHGAFGRVALLLLDRTMAVHAHRVCHVVFKIGGVDILFGVRELEHYLSDDNVLLVNAWEPHFYNHNRDAPSTVLLALYLEPQWLRKVDTRFSCSAHPKFFSQPILALGSKLAGLRADLLDLLTGRESTGSRVVEDLIVRTIIELACVGTRWKELLECQLMGSLAYDARIRQSLDEMKSRGGVALDFDEIASSVGLSRPHFFHLFRKQIGMTPATFGSMLRMEASIDSLAATDTAIHDIARHLGFDSPGNFTRFFLCQQGVTPSQYRRKVEFTTLTCS,not soluble
20,MAHHHHHHMLRLTQAVLRVQSHQKKRAQHPNAGTRFGRVYNRGFVRYGFGGFGMSVYSSKKDRTFKVMPVPPPPPATTAVEQRDDFADNRGLSATTRTLSPTFRMFALEDGGVLVSHPSHAQIMRWNQRVHTEEGKAANSTVMDEYVNSRIQAIIADNTIENTSLSQWRKAHMWNVIKSHGKLQRRWGTPDFVMGARSTLYNN,not soluble
